In patent US20140178963A1 (MINERVA BIOTECHNOLOGIES, published 2014):

Target: T1, NM23-wt containing the Strep-tag II (UniProt P15531 1-152, limits assumed)
T1 construct: Strep-tag II version used in the nanoparticle assay; also called wild type hexamers; not shown: Strep-tag II
Assay: gold nanoparticle color change assay
Description: A nanoparticle assay was used to characterize the binding of NM23 dimers versus hexamers. A MUC1*ecd peptide ([…]) (SEQ ID NO:44) was immobilized on NTA-SAM-coated gold colloids. NM23-wt, NM23S120G-dimer and NM23S120G-hexamer were expressed and purified with the Strep-tag II (FIG. 22c). The addition of NM23S120G-dimer induced a pink to blue solution color change, indicating a specific binding, which was then inhibited by the addition of an anti-MUC1* Fab.

T1 sequence (P15531 whole entry): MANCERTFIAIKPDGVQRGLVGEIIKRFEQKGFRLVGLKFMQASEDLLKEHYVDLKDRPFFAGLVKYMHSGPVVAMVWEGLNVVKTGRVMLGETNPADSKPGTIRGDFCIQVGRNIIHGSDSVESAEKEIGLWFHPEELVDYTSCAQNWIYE

binding result: no binding (tested: 64 nM)
B1: MUC1*ecd peptide (QFNQYKTEAASRYNLTISDVSVSDVPFPFSAQSGAHHHHHH) immobilized on NTA-SAM-coated gold colloids (peptide)
peptide: QFNQYKTEAASRYNLTISDVSVSDVPFPFSAQSGAHHHHHH
notes: also called MUC1*ecd peptide (PSMGFR-His tagged)
